Reference: patent publication US20240002491A1, “METHODS FOR SELECTING PATIENTS FOR TREATMENT WITH AN NGF ANTAGONIST” (Regeneron Pharmaceuticals, Inc., priority 2022, published 2024)

Experiments:
[1] = tested on: adults with moderate-to-severe chronic pain associated with osteoarthritis (OA) of the knee or hip; test: FACT LTS (NCT02683239, R475-PN-1523) efficacy substudy; assay type: in vivo, human; details: fasinumab 1 mg Q8W and 1 mg Q4W groups
Source text: (§1) NCT02683239 (R475-PN-1523, or “FACT LTS”), NCT03161093 (R475-OA-1611, or “FACT OA1”), and NCT03304379 (R475-OA-1688, or “FACT OA2”) each were Phase 3 trials evaluating fasinumab in adults with moderate-to-severe chronic pain associated with osteoarthritis (OA) of the knee or hip. All three of these trials enrolled patients with OA of the knee or hip who had inadequate pain relief with acetaminophen and were intolerant to or had inadequate pain relief with opioids, or were unwilling or unable to take opioids. Complete inclusion and exclusion criteria for the trials are described at clinicaltrials.gov/ct2/show/NCT03161093, clinicaltrials.gov/ct2/show/NCT03304379, and clinicaltrials.gov/ct2/show/NCT02683239.
(§2) The FACT LTS study evaluated the long-term safety and tolerability of fasinumab, including adverse events of special interest such as joint damage (e.g. arthropathies), compared with placebo. A total of 2,411 patients were randomized to one of the following treatment arms: (1) fasinumab 1 mg subcutaneous (SC) every 8 weeks (Q8W); (2) fasinumab 1 mg SC every 4 weeks (Q4W); or (3) matching placebo SC Q4W. This study also included a substudy evaluating the efficacy of fasinumab in these same patient groups (n=215 in fasinumab 1 mg Q8W, n=217 in fasinumab 1 mg Q4W, n=214 in placebo).

alkaline phosphatase = details: DA patients at all doses; by 16 weeks
Source text: Three non-overlapping subgroups are shown: patients without AA, patients with DA and patients with non-DA AAs.

[2] = tested on: adults with moderate-to-severe chronic pain associated with osteoarthritis (OA) of the knee or hip; test: Adjudicated arthropathies across the three fasinumab Phase 3 trials; assay type: in vivo, human; details: across all three Phase 3 trials
Source text: as §1, §2

[3] = tested on: patients with OA of the knee and/or hip; test: Integrated summary of safety (ISS): JR, AA, DA by number of large joints with OA at baseline; assay type: in vivo, human
Experimental: To improve risk-benefit for patients, analyses were conducted to identify populations of patients that might be at greater risk for joint-related adverse events. An integrated summary of safety (ISS) analysis was performed using pooled data from the clinical studies R475-PN-1612 (NCT03285646), R475-PN-1227 (NCT02447276), R475-PN-1523 (NCT02683239), R475-OA-1611 (NCT03161093), R475-OA-1688 (NCT03304379), R475-OA-1758 (NCT03691974), and MT-5547-J01 (NCT03245008).
As used in this Example, the term “adjudicated arthropathy” or “AA” is an umbrella term that encompasses the following conditions: rapidly progressive OA type 1 or 2, subchondral insufficiency fractures, and primary osteonecrosis. The term “destructive arthropathy” or “DA” refers to abnormal bone fragmentation, destruction, or fracture over a short period of time, which are observed by X-ray radiography and which are features inconsistent with radiographic findings typically observed in conventional advanced OA. The term “joint replacement” or “JR” refers to joint replacement surgery.
To examine different phenotypes of OA (generalized OA in particular) a subgroup analysis based on the number of large joints (knees, hips, shoulders) with OA at baseline was performed. OA joints were defined as any hip or knee with baseline KL 2 score or above and any shoulder with a score of mild, moderate or severe. Thus, the minimum number of joints with OA was 1 and the maximum number could be 6. Three subgroups were arbitrarily designated 1-2, 3-4, and 5-6 large joints with OA at baseline.
The analyses are based on large numbers of patients: 2103 patients in the placebo group, 1676 patients in the fasinumab 1 mg Q8W group (also referred to herein as “1Q8”), and 3009 patients in the 1 mg Q4W group (also referred to herein as “1Q4”). The percentage of the population in each subgroup was similar across treatment arms; the 1-2 joint subgroup ranged from 55.8 to 59.5% of the entire population, the range for the 3-4 joint subgroup was 33.6 to 37.4%, and the range for in the 5-6 joint subgroup was 6.7 to 7.1%.

[4] = tested on: adults with moderate-to-severe chronic pain associated with osteoarthritis (OA) of the knee or hip; test: FACT OA1 (NCT03161093, R475-OA-1611) Phase 3 trial, WOMAC pain and physical function; assay type: in vivo, human
Source text: as §1
FACT OA1 and FACT OA2 assessed the efficacy of fasinumab in comparison to nonsteroidal anti-inflammatory drugs (NSAIDs; naproxen, diclofenac, or celecoxib) for treatment of OA. FACT OA1 includes results from a total of 1,801 patients randomized to one of four treatment arms: fasinumab 1 mg SC once every 8 weeks (Q8W) (n=304), fasinumab 1 mg SC once every 4 weeks (Q4W) (n=639), naproxen 500 mg twice daily (n=644), or placebo (n=214). In FACT OA2, patients were randomized into one of six treatment groups: fasinumab 1 mg SC once every 4 weeks (Q4W), fasinumab 3 mg SC once every 4 weeks (Q4W), fasinumab 6 mg SC once every 8 weeks (Q8W), celecoxib 200 mg once daily, diclofenac 75 mg twice daily, or placebo. While the FACT OA2 trial was still ongoing, enrollment into the fasinumab 3 mg Q4W and 6 mg Q8W groups was stopped for safety considerations; patients enrolled in those dose regimens discontinued study drug and entered the post-treatment follow-up period.
Fasinumab patients in both trials also reported improvements in their pain and physical function (WOMAC score) compared to those treated with the highest-approved prescription doses of NSAIDS.

[5] = tested on: patients with OA of the knee and/or hip; test: ISS rates of DA and AA above and below cut-offs for change in alkaline phosphatase at 16 weeks
Source text: To explore this possibility, three different cut-offs at 16 weeks were chosen (10, 15 and 20 U/L change from baseline) and the rate of DA above and below each cut-off was examined (FIG. 6). Of note, the standard deviation for change in alkaline phosphatase in the placebo arm is 12.9 at 8 weeks and 12.7 at 16 weeks.

[6] = 1 mg Q4W (1Q4), 1-2 joint subgroup
[7] = 1 mg Q4W (1Q4), 5-6 joint subgroup
[8] = 1 mg Q8W (1Q8), 1-2 joint subgroup
[9] = 1 mg Q8W (1Q8), 5-6 joint subgroup
[10] = FACT OA1, Week 16, fasinumab 1 mg Q4W, naproxen 2 × 500 mg/day

“Fasinumab: fully-human high-affinity monoclonal antibody directed against NGF; HCVR/LCVR SEQ ID NOs: 2/10” was tested, and the “co-primary endpoints: pain and physical function (WOMAC score) compared to placebo” value [1] was “significantly reduced pain and improved physical function (WOMAC score) compared to placebo”, the “mean change from baseline in alkaline phosphatase” value (alkaline phosphatase) was 20 U/L and the “rates of adjudicated arthropathies compared with placebo or NSAIDs” value [2] was “higher rates of arthropathies were adjudicated in patients treated with fasinumab compared with placebo or NSAIDs, which were dose-dependent”. For the same substance, the “median time for detection of DA” value ([3]; 1 mg Q4W) was 343.5 days, the “difference in all AA from placebo” value ([3]; 1 mg Q4W (1Q4)) was 5.7% and the “JR rate, difference from placebo” value [3, 6] was 1.3%. For the same substance, the RPOA-1 rate [3, 6] was 5.8%, the “RPOA-1 rate, difference versus placebo” value [3, 6] was 4.1% and the “percentage of patients who developed adjudicated arthropathy (AA)” value (shortened to “percentage … (AA)”) [3, 6] was 7.7%. For the same substance, the “percentage of patients who underwent joint replacement (JR)” value (from here on “percentage … (JR)”) [3, 6] was 6.4%, the “percentage of patients with destructive arthropathy (DA)” value (shortened to “percentage of patients … (DA)”) [3, 6] was 0.3% and the “percentage … (AA)” value [3, 7] was 12.2%. The “percentage … (JR)” value [3, 7] was 14.6%, the “percentage of patients … (DA)” value [3, 7] was 1.5% and the “median time for detection of DA” value ([3]; 1 mg Q8W) was 284 days. For the same substance, the “difference in all AA from placebo” value ([3]; 1 mg Q8W (1Q8)) was 3.7%, the “JR rate, difference from placebo” value [3, 8] was 0.8% and the RPOA-1 rate [3, 8] was 4.8%. For the same substance, the “RPOA-1 rate, difference versus placebo” value [3, 8] was 3.1%, the “percentage … (AA)” value [3, 8] was 5.7% and the “percentage … (JR)” value [3, 8] was 5.9%. For the same substance, the “percentage of patients … (DA)” value [3, 8] was 0.2%, the “percentage … (AA)” value [3, 9] was 10.7% and the “percentage … (JR)” value [3, 9] was 12.5%. For the same substance, the “percentage of patients … (DA)” value [3, 9] was 0.9%, the “median time for detection of DA” value ([3]; pooled high dose (3 mg Q4W, 6 mg Q4W, 9 mg Q8W, 9 mg Q4W)) was 364.5 days and the “WOMAC pain, change from baseline” value [4, 10] was −39%. For the same substance, the “WOMAC pain, change from baseline (score, in brackets)” value [4, 10] was “(−2.48)”, the “WOMAC physical function, change from baseline” value [4, 10] was −39% and the “WOMAC physical function, change from baseline (score, in brackets)” value [4, 10] was “(−2.41)”. For the same substance, the “WOMAC physical function, difference vs. placebo” value ([4]; FACT OA1, Week 16, fasinumab 1 mg Q4W, p = 0.0001) was −0.67, the “WOMAC pain, difference vs. placebo” value ([4]; FACT OA1, Week 16, fasinumab 1 mg Q4W, p = 0.0003) was −0.66 and the “WOMAC physical function, difference vs. naproxen” value ([4]; FACT OA1, Week 16, fasinumab 1 mg/month vs naproxen 2 × 500 mg/day, nominal p = 0.0006) was −0.41. The “WOMAC pain, difference vs. naproxen” value ([4]; FACT OA1, Week 16, fasinumab 1 mg/month vs naproxen 2 × 500 mg/day, nominal p = 0.0050) was −0.35, the “co-primary endpoints: pain and physical function compared to placebo” value ([4]; FACT OA1, fasinumab 1 mg Q4W, p<0.01 for all endpoints) was “significantly reduced pain and improved physical function compared to placebo” and the “odds ratios of DA, change in alkaline phosphatase above vs below cut-off” value ([5]; cut-offs 10, 15, 20 U/L at 16 weeks, 1Q4 and 1Q8) was 6 to 25. The “odds ratios of AA, change in alkaline phosphatase above vs below cut-off” value ([5]; cut-offs at 16 weeks, all 95% confidence intervals excluding 1) was 1.5 to 2.5.
